Where “and” joins values, the source holds several entries; their conditions need not be identical. Equal entries are not always repeated.
Assays:
nectin-1 (PVRL1) = assay: qPCR of nectin-1 (PVRL1) after CLDN1 siRNA in PHK; assay type: cell-based, human
Experimental: PHK were plated on glass coverslips at 2-3×10^5 cells/well in a E-well plate or at 2-3×10^4 cells/filter in Transwell inserts (Costar; PET membrane, 0.4 μm pore size, 6.5 mm insert) in Keratinocyte-SFM without antibiotics. The next day after plating, cells were transfected with claudin-1 specific or control (scrambled) siRNAs (Santa Cruz) using Lipofectamine™ 2000 transfection Reagent (Invitrogen).
Reverse transcription was performed from total RNA using iScript™ cDNA Synthesis kit (Bio-Rad) according to the manufacturer's protocol. qPCR was performed using the iQ™ SYBER Green Supermix assay system from Bio-Rad Laboratories. All PCR amplifications were carried out in triplicate on an iQ5 Multicolor real-time PCR detection system (Bio-Rad). Primers were designed and synthesized by Integrated DNA Technologies. […]
Relative gene expression was calculated by using the […], in which Ct indicates cycle threshold, the fractional cycle number where the fluorescent signal reaches detection threshold. Livak and Schmittgen, “Analysis of Relative Gene Expression Data Using Real-Time Quantitative PCR and the 2(−Delta Delta C(T)) Method,” Methods 25:402-8 (2001), which is hereby incorporated by reference in its entirety. The normalized Ct value of each sample was calculated using GAPDH as an endogenous control gene.

[1] = tested on: primary human keratinocytes (PHK); assay: Click-iT EdU proliferation assay in PHK; assay type: cell-based; conditions: n=3
HSV-1 strain F = assay: Infectious center assay; assay type: cell-based, Herpes Simplex Virus (HSV)-1; conditions: 24 h post-infection, n=3
Experimental: Twenty-four hours post-infection, PHK were treated with 0.05% Trypsin-EDTA (Invitrogen/Gibco) for 5 min at 37° C. followed by gently scraping to lift the cells, washed 3 times in DMEM containing 1% HI-FBS, and vortexed for 30 sec to disrupt cell clumps. Alive cells were counted using Trypan blue exclusion and scalar PHK dilutions (1000 to 1 cells in 1 ml of media) were plated onto pre-grown monolayers of Vero cells in six well plates. After 2 h, 1 ml of DMEM containing 5% HI-FBS and 0.4% human-γ-globulin (Sigma; final concentration 0.5 mg/ml) was added to each well. After 3 days incubation at 37° C., cells were fixed (75% MeOH/25% acetic acid) and stained with 0.1% crystal violet. Plaques were counted by 2 independent investigators and results expressed as percent of infected PHK.

B1: CLDN1 siRNA: claudin-1 specific siRNA (Santa Cruz), a pool of 3 separate strands, SEQ ID NO: 10-15 (nucleic acid)
chain 1: UACAUAGGCAUAGUUCAUGNN
chain 2: CAUGAACUAUGCCUAUGUANN
chain 3: AACGUAUGCAGUUAAUUCCNN
chain 4: GGAAUUAACUGCAUACGUUNN
chain 5: UGAAGAUCUAUGUAUGUGGNN
chain 6: CCACAUACAUAGAUCUUCANN
modifications: chemistry not given here
- nectin-1 mRNA expression, effect of CLDN1 silencing (nectin-1 (PVRL1); n=5): not affected
- nectin-1 (PVRL1) mRNA relative expression (nectin-1 (PVRL1); siRNA 100 nM, n=5/group): 0.99±0.16
- cell proliferation by Click-iT EdU assay ([1]; CLDN1 siRNA, PHK): enhanced cell proliferation
- proliferating cells ([1]; claudin-1 depleted PHK): 21.6±1.4 EdU positive cells/hpf
- PHK infected with HSV-1 (HSV-1 strain F): 38±6% and 38±6.43%

Source: patent US20130045267A1, “METHODS OF USING AGENTS THAT MODULATE CLAUDIN EXPRESSION” (priority 2010, published 2013)
